Test results reported in PMC11574045, “A cofactor-induced repressive type of transcription factor condensation can be induced by synthetic peptides to suppress tumorigenesis” (The EMBO Journal, 2024).

What follows are molecules tested on HEK293FT cells transfected with TF library (assay: Screening of TF condensates based on fluorescent puncta). Conditions: Figure 1B numerical data; TF library screen, one value per transcriptional factor.
Format: cell-based
Method in brief: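 Cells were seeded onto plasmid/PEI-loaded wells (plasmid 1.6 μg/ml final) and grown 60 h. Medium with or without glucose followed for 12 h. Fixed, permeabilized cells were stained against Flag or GAL4 tags, and condensate puncta were quantified from 50 random fields per well.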

Molecule	Z score of condensed fraction
FOXP4 (protein, UniProt Q8IVH2 1-680, looked up) Forkhead box protein P4: MMVESASETIRSAPSGQNGVGSLSGQADGSSGGATGTTASGTGREVTTGADSNGEMSPAELLHFQQQQALQVARQFLLQQASGLSSPGNNDSKQSASAVQVPVSVAMMSPQMLTPQQMQQILSPPQLQALLQQQQALMLQQLQEYYKKQQEQLHLQLLTQQQAGKPQPKEALGNKQLAFQQQLLQMQQLQQQHLLNLQRQGLVSLQPNQASGPLQTLPQAAVCPTDLPQLWKGEGAPGQPAEDSVKQEGLDLTGTAATATSFAAPPKVSPPLSHHTLPNGQPTVLTSRRDSSSHEETPGSHPLYGHGECKWPGCETLCEDLGQFIKHLNTEHALDDRSTAQCRVQMQVVQQLEIQLAKESERLQAMMAHLHMRPSEPKPFSQPLNPVPGSSSFSKVTVSAADSFPDGLVHPPTSAAAPVTPLRPPGLGSASLHGGGPARRRSSDKFCSPISSELAQNHEFYKNADVRPPFTYASLIRQAILETPDRQLTLNEIYNWFTRMFAYFRRNTATWKNAVRHNLSLHKCFVRVENVKGAVWTVDEREYQKRRPPKMTGSPTLVKNMISGLSYGALNASYQAALAESSFPLLNSPGMLNPGSASSLLPLSHDDVGAPVEPLPSNGSSSPPRLSPPQYSHQVQVKEEPAEAEEDRQPGPPLGAPNPSASGPPEDRDLEEELPGEELS	0.7085
GCN512 (protein, UniProt Q92830 2-837, looked up) Histone acetyltransferase …: AEPSQAPTPAPAAQPRPLQSPAPAPTPTPAPSPASAPIPTPTPAPAPAPAAAPAGSTGTGGPGVGSGGAGSGGDPARPGLSQQQRASQRKAQVRGLPRAKKLEKLGVFSACKANETCKCNGWKNPKPPTAPRMDLQQPAANLSELCRSCEHPLADHVSHLENVSEDEINRLLGMVVDVENLFMSVHKEEDTDTKQVYFYLFKLLRKCILQMTRPVVEGSLGSPPFEKPNIEQGVLNFVQYKFSHLAPRERQTMFELSKMFLLCLNYWKLETPAQFRQRSQAEDVATYKVNYTRWLCYCHVPQSCDSLPRYETTHVFGRSLLRSIFTVTRRQLLEKFRVEKDKLVPEKRTLILTHFPKFLSMLEEEIYGANSPIWESGFTMPPSEGTQLVPRPASVSAAVVPSTPIFSPSMGGGSNSSLSLDSAGAEPMPGEKRTLPENLTLEDAKRLRVMGDIPMELVNEVMLTITDPAAMLGPETSLLSANAARDETARLEERRGIIEFHVIGNSLTPKANRRVLLWLVGLQNVFSHQLPRMPKEYIARLVFDPKHKTLALIKDGRVIGGICFRMFPTQGFTEIVFCAVTSNEQVKGYGTHLMNHLKEYHIKHNILYFLTYADEYAIGYFKKQGFSKDIKVPKSRYLGYIKDYEGATLMECELNPRIPYTELSHIIKKQKEIIKKLIERKQAQIRKVYPGLSCFKEGVRQIPVESVPGIRETGWKPLGKEKGKELKDPDQLYTTLKNLLAQIKSHPSAWPFMEPVKKSEAPDYYEVIRFPIDLKTMTERLRSRYYVTRKLFVADLQRVIANCREYNPPDSEYCRCASALEKFFYFKLKEGGLIDK	-0.5333
FOXR2 (protein, UniProt Q6PJQ5 1-311, looked up) Forkhead box protein R2: MDLKLKDCEFWYSLHGQVPGLLDWDMRNELFLPCTTDQCSLAEQILAKYRVGVMKPPEMPQKRRPSPDGDGPPCEPNLWMWVDPNILCPLGSQEAPKPSGKEDLTNISPFPQPPQKDEGSNCSEDKVVESLPSSSSEQSPLQKQGIHSPSDFELTEEEAEEPDDNSLQSPEMKCYQSQKLWQINNQEKSWQRPPLNCSHLIALALRNNPHCGLSVQEIYNFTRQHFPFFWTAPDGWKSTIHYNLCFLDSFEKVPDSLKDEDNARPRSCLWKLTKEGHRRFWEETRVLAFAQRERIQECMSQPELLTSLFDL	-0.6086
GDNF (protein, UniProt P39905 78-211, looked up) Glial cell line-derived …: SPDKQMAVLPRRERNRQAAAANPENSRGKGRRGQRGKNRGCVLTAIHLNVTDLGLGYETKEELIFRYCSGSCDAAETTYDKILKNLSRNRRLVSDKVGQACCRPIAFDDDLSFLDDNLVYHILRKHSAKRCGCI	-0.9627
GATAD1 (protein, UniProt Q8WUU5 1-269, looked up) GATA zinc finger …: MPLGLKPTCSVCKTTSSSMWKKGAQGEILCHHCTGRGGAGSGGAGSGAAGGTGGSGGGGFGAATFASTSATPPQSNGGGGGKQSKQEIHRRSARLRNTKYKSAPAAEKKVSTKGKGRRHIFKLKNPIKAPESVSTIITAESIFYKGVYYQIGDVVSVIDEQDGKPYYAQIRGFIQDQYCEKSAALTWLIPTLSSPRDQFDPASYIIGPEEDLPRKMEYLEFVCHAPSEYFKSRSSPFPTVPTRPEKGYIWTHVGPTPAITIKESVANHL	-0.9628
FOXO3 (protein, UniProt O43524 1-673, looked up) Forkhead box protein O3: MAEAPASPAPLSPLEVELDPEFEPQSRPRSCTWPLQRPELQASPAKPSGETAADSMIPEEEDDEDDEDGGGRAGSAMAIGGGGGSGTLGSGLLLEDSARVLAPGGQDPGSGPATAAGGLSGGTQALLQPQQPLPPPQPGAAGGSGQPRKCSSRRNAWGNLSYADLITRAIESSPDKRLTLSQIYEWMVRCVPYFKDKGDSNSSAGWKNSIRHNLSLHSRFMRVQNEGTGKSSWWIINPDGGKSGKAPRRRAVSMDNSNKYTKSRGRAAKKKAALQTAPESADDSPSQLSKWPGSPTSRSSDELDAWTDFRSRTNSNASTVSGRLSPIMASTELDEVQDDDAPLSPMLYSSSASLSPSVSKPCTVELPRLTDMAGTMNLNDGLTENLMDDLLDNITLPPSQPSPTGGLMQRSSSFPYTTKGSGLGSPTSSFNSTVFGPSSLNSLRQSPMQTIQENKPATFSSMSHYGNQTLQDLLTSDSLSHSDVMMTQSDPLMSQASTAVSAQNSRRNVMLRNDPMMSFAAQPNQGSLVNQNLLHHQHQTQGALGGSRALSNSVSNMGLSESSSLGSAKHQQQSPVSQSMQTLSDSLSGSSLYSTSANLPVMGHEKFPSDLDLDMFNGSLECDMESIIRSELMDADGLDFNFDSLISTQNVVGLNVGNFTGAKQASSQSWVPG	-0.5303
GABPB1 (protein, UniProt Q06547 2-395, looked up) GA-binding protein subunit …: SLVDLGKKLLEAARAGQDDEVRILMANGAPFTTDWLGTSPLHLAAQYGHYSTTEVLLRAGVSRDARTKVDRTPLHMAASEGHASIVEVLLKHGADVNAKDMLKMTALHWATEHNHQEVVELLIKYGADVHTQSKFCKTAFDISIDNGNEDLAEILQIAMQNQINTNPESPDTVTIHAATPQFIIGPGGVVNLTGLVSSENSSKATDETGVSAVQFGNSSTSVLATLAALAEASAPLSNSSETPVVATEEVVTAESVDGAIQQVVSSGGQQVITIVTDGIQLGNLHSIPTSGIGQPIIVTMPDGQQVLTVPATDIAEETVISEEPPAKRQCIEIIENRVESAEIEEREALQKQLDEANREAQKYRQQLLKKEQEAEAYRQKLEAMTRLQTNKEAV	-0.05729
FOXS1 (protein, UniProt O43638 1-330, looked up) Forkhead box protein S1: MQQQPLPGPGAPTTEPTKPPYSYIALIAMAIQSSPGQRATLSGIYRYIMGRFAFYRHNRPGWQNSIRHNLSLNECFVKVPRDDRKPGKGSYWTLDPDCHDMFEHGSFLRRRRRFTRQTGAEGTRGPAKARRGPLRATSQDPGVPNATTGRQCSFPPELPDPKGLSFGGLVGAMPASMCPATTDGRPRPPMEPKEISTPKPACPGELPVATSSSSCPAFGFPAGFSEAESFNKAPTPVLSPESGIGSSYQCRLQALNFCMGADPGLEHLLASAAPSPAPPTPPGSLRAPLPLPTDHKEPWVAGGFPVQGGSGYPLGLTPCLYRTPGMFFFE	2.025
AIRE (protein, UniProt O43918 1-545, looked up) Autoimmune regulator: MATDAALRRLLRLHRTEIAVAVDSAFPLLHALADHDVVPEDKFQETLHLKEKEGCPQAFHALLSWLLTQDSTAILDFWRVLFKDYNLERYGRLQPILDSFPKDVDLSQPRKGRKPPAVPKALVPPPRLPTKRKASEEARAAAPAALTPRGTASPGSQLKAKPPKKPESSAEQQRLPLGNGIQTMSASVQRAVAMSSGDVPGARGAVEGILIQQVFESGGSKKCIQVGGEFYTPSKFEDSGSGKNKARSSSGPKPLVRAKGAQGAAPGGGEARLGQQGSVPAPLALPSDPQLHQKNEDECAVCRDGGELICCDGCPRAFHLACLSPPLREIPSGTWRCSSCLQATVQEVQPRAEEPRPQEPPVETPLPPGLRSAGEEVRGPPGEPLAGMDTTLVYKHLPAPPSAAPLPGLDSSALHPLLCVGPEGQQNLAPGARCGVCGDGTDVLRCTHCAAAFHWRCHFPAGTSRPGTGLRCRSCSGDVTPAPVEGVLAPSPARLAPGPAKDDTASHEPALHRDDLESLLSEHTFDGILQWAIQSMARPAAPFPS	1.2609
FOXN2 (protein, UniProt P32314 1-431, looked up) Forkhead box protein N2: MGPVIGMTPDKRAETPGAEKIAGLSQIYKMGSLPEAVDAARPKATLVDSESADDELTNLNWLHESTNLLTNFSLGSEGLPIVSPLYDIEGDDVPSFGPACYQNPEKKSATSKPPYSFSLLIYMAIEHSPNKCLPVKEIYSWILDHFPYFATAPTGWKNSVRHNLSLNKCFQKVERSHGKVNGKGSLWCVDPEYKPNLIQALKKQPFSSASSQNGSLSPHYLSSVIKQNQVRNLKESDIDAAAAMMLLNTSIEQGILECEKPLPLKTALQKKRSYGNAFHHPSAVRLQESDSLATSIDPKEDHNYSASSMAAQRCASRSSVSSLSSVDEVYEFIPKNSHVGSDGSEGFHSEEDTDVDYEDDPLGDSGYASQPCAKISEKGQSGKKMRKQTCQEIDEELKEAAGSLLHLAGIRTCLGSLISTAKTQNQKQRKK	-0.402
GATA2 (protein, UniProt P23769 1-480, looked up) Endothelial transcription …: MEVAPEQPRWMAHPAVLNAQHPDSHHPGLAHNYMEPAQLLPPDEVDVFFNHLDSQGNPYYANPAHARARVSYSPAHARLTGGQMCRPHLLHSPGLPWLDGGKAALSAAAAHHHNPWTVSPFSKTPLHPSAAGGPGGPLSVYPGAGGGSGGGSGSSVASLTPTAAHSGSHLFGFPPTPPKEVSPDPSTTGAASPASSSAGGSAARGEDKDGVKYQVSLTESMKMESGSPLRPGLATMGTQPATHHPIPTYPSYVPAAAHDYSSGLFHPGGFLGGPASSFTPKQRSKARSCSEGRECVNCGATATPLWRRDGTGHYLCNACGLYHKMNGQNRPLIKPKRRLSAARRAGTCCANCQTTTTTLWRRNANGDPVCNACGLYYKLHNVNRPLTMKKEGIQTRNRKMSNKSKKSKKGAECFEELSKCMQEKSSPFSAAALAGHMAPVGHLPPFSHSGHILPTPTPIHPSSSLSFGHPHPSSMVTAMG	-0.7866
FOXR1 (protein, UniProt Q6PIV2 1-292, looked up) Forkhead box protein R1: MGNELFLAFTTSHLPLAEQKLARYKLRIVKPPKLPLEKKPNPDKDGPDYEPNLWMWVNPNIVYPPGKLEVSGRRKREDLTSTLPSSQPPQKEEDASCSEAAGVESLSQSSSKRSPPRKRFAFSPSTWELTEEEEAEDQEDSSSMALPSPHKRAPLQSRRLRQASSQAGRLWSRPPLNYFHLIALALRNSSPCGLNVQQIYSFTRKHFPFFRTAPEGWKNTVRHNLCFRDSFEKVPVSMQGGASTRPRSCLWKLTEEGHRRFAEEARALASTRLESIQQCMSQPDVMPFLFDL	-0.3141
